Measured values as given in article PMC11242853, “The Antimicrobial Activity of Human Defensins at Physiological Non-Permeabilizing Concentrations Is Caused by the Inhibition of the Plasma Membrane H^+-ATPases” (International Journal of Molecular Sciences, 2024).

Tests used:
[1] = test system: P. aeruginosa cells; experiment: Oxygen consumption measurement (polarographic), P. aeruginosa; type: cell-based, Pseudomonas aeruginosa; settings: after 30 min; defensins 2 x NPIC, human lactoferrin 20 μM, piericidin A 32 µM; preincubated 15 min at 37 °C; untreated cells 83% ± 2%; means ± SD, three experiments
Experimental: Oxygen consumption by C. albicans and P. aeruginosa cells was determined by polarographically using a biological oxygen monitor (dual digital-model 20; Rank Brothers Ltd., Cambridge, UK) at 25 °C. The apparatus consisted of a twin water-jacketed closed sample chamber, which enabled a control experiment to be conducted concurrently. The cells were grown to mid-log phase in SDB (C. albicans) or TSB (P. aeruginosa), washed twice in Tris buffer, and resuspended in the same buffer. Cell suspensions (approximately 10^7 cells/mL) were preincubated with defensins (2 x NPIC), human lactoferrin (20 μM), or piericidin A (32 μM) for 15 min at 37 °C. Oxygen consumption was recorded at 5-min intervals for a period of 30 min. Three independent experiments were performed, and the data are means ± SD.

[2] = test system: Pseudomonas aeruginosa PAO1; experiment: Antimicrobial spread-plate (CFU) killing assay, P. aeruginosa; type: cell-based
Experimental: (§1) To determine whether the above microbicidal concentrations exert a permeabilizing effect on fungal and bacterial membranes, the influx of the fluorescent nucleic acid-binding dye propidium iodide (PI) in cells incubated with the peptides was assessed. In cells, dye uptake reflects membrane permeabilization, as PI itself cannot permeate through an intact phospholipid bilayer. […] To select an antimicrobial but non-permeabilizing concentration of each peptide for further assays, we defined as a non-permeabilizing inhibitory concentration (NPIC) the antimicrobial inhibitory concentration (≤10% viable cells) that permeabilized ≤ 10% of cells incubated (90 min at 37 °C) in buffer solution.
(§2) Microbial susceptibility to the peptides was determined in a spread-plate assay as described previously. Briefly, cell suspensions (10^6 cells/mL) in Tris buffer (10 mM Tris-HCl, pH 7.4) were incubated for 90 min at 37 °C with 2-fold serial peptide dilutions. Peptide concentrations ranged from 0 to 2 μM. After incubation, the number of viable cells was determined by plating aliquots (100 μL) in duplicate on plates (SDA for C. albicans, TSA for P. aeruginosa, and M17G agarified medium for L. lactis) that had been dried for 30 min at room temperature in a laminar flow hood. Plates were incubated for 24–48 h at 30 °C (C. albicans and L. lactis) or 24 h at 37 °C (P. aeruginosa). Dilutions yielding 50–200 colonies were counted. Cell viability values, expressed as colony-forming units (CFUs), were calculated relative to the incubation without added peptides and represent the means ± standard deviation (SD) from duplicates of three independent experiments. For inhibition assays, unless otherwise noted, cell suspensions were preincubated (15 min at 37 °C) with the appropriate inhibitor prior to the addition of peptides, but the inhibitor was present throughout the incubation period with the peptide (90 min at 37 °C). Other specific experimental conditions are described as appropriate. […]

[3] = test system: Candida albicans ATCC 10231; experiment: Antimicrobial spread-plate (CFU) killing assay, C. albicans; type: cell-based
Experimental: as §1
Microbial susceptibility to the peptides was determined in a spread-plate assay as described previously. Briefly, cell suspensions (10^6 cells/mL) in Tris buffer (10 mM Tris-HCl, pH 7.4) were incubated for 90 min at 37 °C with 2-fold serial peptide dilutions. Peptide concentrations ranged from 0 to 2 μM. After incubation, the number of viable cells was determined by plating aliquots (100 μL) in duplicate on plates (SDA for C. albicans, TSA for P. aeruginosa, and M17G agarified medium for L. lactis) that had been dried for 30 min at room temperature in a laminar flow hood. Plates were incubated for 24–48 h at 30 °C (C. albicans and L. lactis) or 24 h at 37 °C (P. aeruginosa). Dilutions yielding 50–200 colonies were counted. Cell viability values, expressed as colony-forming units (CFUs), were calculated relative to the incubation without added peptides and represent the means ± standard deviation (SD) from duplicates of three independent experiments. For inhibition assays, unless otherwise noted, cell suspensions were preincubated (15 min at 37 °C) with the appropriate inhibitor prior to the addition of peptides, but the inhibitor was present throughout the incubation period with the peptide (90 min at 37 °C). Other specific experimental conditions are described as appropriate. In some experiments, the concentrations of human lactoferrin against C. albicans (5 μM), P. aeruginosa (1 μM), and L. lactis (0.065 μM) were used in the control assays. In various viability assays, BM2 peptide (0.25 μM), CCCP (50 μM), colistin (4 μg/mL), nystatin (50 μM), oligomycin A (16 μg/mL), piericidin A (32 μM), and TEA (10 mM) were used.

[4] = test system: C. albicans cells; experiment: Extracellular potassium measurement (K+-efflux, ICP-MS); type: cell-based, Candida albicans; settings: peptides at NPIC / microbicidal concentrations; 10^7 cells/mL, 90 min at 37 °C; steady state compared with maximum intracellular K+ of untreated cells
Experimental: Potassium measurements were performed via inductively coupled plasma mass spectrometry using an Agilent 7700x ICP-MS (Agilent Technologies, Santa Clara, CA, USA). C. albicans cells were cultured in SDB for 16–20 h at 30 °C. The cells were then subcultured in the same media to the mid-logarithmic growth phase and rapidly washed in sterile, deionized, double-distilled water. The cells (10^7 cells/mL) were immediately incubated with the peptides (NPIC) for 90 min at 37 °C. The tubes were centrifuged at 1100× g for 10 min and the supernatants were collected and stored at 4 °C until analysis. The percentage of cytosolic potassium released from cell suspensions treated with nystatin (50 μM) was determined in positive control assays. Total cellular K^+-content (100% value) was measured in the supernatant of cell suspensions previously treated with 0.5% (v/v) HClO4 alone, heated for 1 h at 95 °C, and centrifuged to remove cell debris. Results are expressed as the percentage (means ± SD) of K^+-release relative to the total cellular K^+-content from duplicates of at least three independent assays.

[5] = test system: Lactococcus lactis subsp. lactis (strain IL1403); experiment: Antimicrobial spread-plate (CFU) killing assay, fermenting L. lactis; type: cell-based; settings: human lactoferrin 0.062 µM; fermentative conditions; relative to untreated control
Experimental: as §2

[6] = antimicrobial concentration (≤10% viable cells) that permeabilized ≤10% of cells, 10^6 cells/mL, Tris buffer pH 7.4, 90 min at 37 °C, from Figure 1 data, duplicates of three experiments

B1: human lactoferrin: Recombinant human apo-lactoferrin (hLf), 691 amino acid γ-core protein that inhibits microbial PM H+-ATPases; control (protein, UniProt P02788 20-710, looked up)
Lactotransferrin: GRRRSVQWCAVSQPEATKCFQWQRNMRKVRGPPVSCIKRDSPIQCIQAIAENRADAVTLDGGFIYEAGLAPYKLRPVAAEVYGTERQPRTHYYAVAVVKKGGSFQLNELQGLKSCHTGLRRTAGWNVPIGTLRPFLNWTGPPEPIEAAVARFFSASCVPGADKGQFPNLCRLCAGTGENKCAFSSQEPYFSYSGAFKCLRDGAGDVAFIRESTVFEDLSDEAERDEYELLCPDNTRKPVDKFKDCHLARVPSHAVVARSVNGKEDAIWNLLRQAQEKFGKDKSPKFQLFGSPSGQKDLLFKDSAIGFSRVPPRIDSGLYLGSGYFTAIQNLRKSEEEVAARRARVVWCAVGEQELRKCNQWSGLSEGSVTCSSASTTEDCIALVLKGEADAMSLDGGYVYTAGKCGLVPVLAENYKSQQSSDPDPNCVDRPVEGYLAVAVVRRSDTSLTWNSVKGKKSCHTAVDRTAGWNIPMGLLFNQTGSCKFDEYFSQSCAPGSDPRSNLCALCIGDEQGENKCVPNSNERYYGYTGAFRCLAENAGDVAFVKDVTVLQNTDGNNNEAWAKDLKLADFALLCLDGKRKPVTEARSCHLAMAPNHAVVSRMDKVERLKQVLLHQQAKFGRNGSDCPDKFCLFQSETKNLLFNDNTECLARLHGKTTYEKYLGPQYVAGITNLKKCSTSPLLEACEFLRK
modifications: apo form
notes: control
O2 consumption of P. aeruginosa [1]: 87% ± 2% | effect of high extracellular K+ on pseudomonacidal activity ([2]; 50 mM KCl, defensins at NPIC, hLf 1 μM, colistin 4 μg/mL): decreased | non-permeabilizing inhibitory concentration (NPIC), P. aeruginosa [2, 6]: 1 µM | effect of CCCP on bactericidal activity, P. aeruginosa ([2]; preincubated 15 min at 37 °C with 50 µM CCCP at pH 7.4, peptides at NPIC): slightly reduced | effect of high extracellular K+ on candidacidal activity ([3]; 50 mM KCl, defensins at NPIC, hLf 5 μM, BM2 0.25 μM, nystatin 50 μM): significantly decreased | non-permeabilizing inhibitory concentration (NPIC), C. albicans [3, 6]: 5 µM | effect of piericidin A on candidacidal activity ([3]; cells preincubated 15 min at 37 °C with 32 µM piericidin A, then peptides (NPIC) 90 min): significantly (p < 0.001) inhibited | effect of oligomycin A on candidacidal activity ([3]; preincubated 15 min at 37 °C with 16 μg/mL oligomycin A, peptides at NPIC): significantly reduced | effect of Tok1p inhibition (TEA) on candidacidal activity ([3]; preincubation 15 min at 37 °C with 10 mM TEA+, peptides at NPIC): reduced | K^+-efflux pattern in C. albicans [4]: partial K^+-efflux | cell viability of L. lactis [5]: 13% ± 5%
